Results published in patent EP4786492A1.
Positions count from the first letter of the chain named. Blank lines part the entries; values can stand above or below the binder they belong to.

How the values were obtained:
[1] = biological target: human DLL3 protein (extracellular segment, His tag) (human) (UniProt Q9NYJ7); experiment: SPR (Biacore 8K), antibody captured on Protein A chip, DLL3 antigen in solution, 1:1 Langmuir fit
[2] = biological target: DLL3 endogenously expressed on NCI-H82 cells (UniProt Q9NYJ7); experiment: FACS on NCI-H82 cells; antibody 4 nM
[3] = biological target: DLL3 endogenously expressed on NCI-H82 cells (UniProt Q9NYJ7); experiment: FACS on NCI-H82 cells; antibody 20 nM
[4] = biological target: DLL3 endogenously expressed on NCI-H82 cells (UniProt Q9NYJ7); experiment: FACS on NCI-H82 cells; antibody 0.8 nM
[5] = biological target: DLL3 endogenously expressed on NCI-H82 cells (UniProt Q9NYJ7); experiment: FACS on NCI-H82 cells; antibody 100 nM
[6] = biological target: DLL3 endogenously expressed on NCI-H82 cells (UniProt Q9NYJ7); experiment: FACS on NCI-H82 cells; antibody 0.16 nM
[7] = biological target: DLL3 endogenously expressed on NCI-H82 cells (UniProt Q9NYJ7); experiment: FACS on NCI-H82 cells; antibody 0.032 nM
[8] = biological target: DLL3 endogenously expressed on NCI-H82 cells (UniProt Q9NYJ7); experiment: FACS on NCI-H82 cells; antibody 0.0064 nM
[9] = biological target: DLL3 endogenously expressed on NCI-H82 cells (UniProt Q9NYJ7); experiment: FACS on NCI-H82 cells; antibody 0.00128 nM

Sequence of DLL3 endogenously expressed on NCI-H82 cells (Q9NYJ7 27-618): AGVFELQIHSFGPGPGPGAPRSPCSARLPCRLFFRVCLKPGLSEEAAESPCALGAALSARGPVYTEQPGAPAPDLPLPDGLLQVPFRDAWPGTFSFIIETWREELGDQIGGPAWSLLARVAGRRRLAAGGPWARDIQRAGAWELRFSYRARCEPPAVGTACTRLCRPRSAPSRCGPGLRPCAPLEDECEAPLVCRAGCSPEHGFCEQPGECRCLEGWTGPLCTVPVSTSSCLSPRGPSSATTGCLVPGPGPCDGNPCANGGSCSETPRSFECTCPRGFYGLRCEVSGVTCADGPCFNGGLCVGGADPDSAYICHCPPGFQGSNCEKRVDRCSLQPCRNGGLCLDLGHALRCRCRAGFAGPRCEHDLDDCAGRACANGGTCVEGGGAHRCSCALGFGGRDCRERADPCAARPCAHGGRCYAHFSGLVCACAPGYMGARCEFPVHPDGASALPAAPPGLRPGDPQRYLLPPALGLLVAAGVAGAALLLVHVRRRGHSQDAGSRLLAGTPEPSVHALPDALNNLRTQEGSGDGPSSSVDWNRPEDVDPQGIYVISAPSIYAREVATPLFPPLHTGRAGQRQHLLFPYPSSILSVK
Sequence of human DLL3 protein (extracellular segment, His tag) (human) (Q9NYJ7 27-492): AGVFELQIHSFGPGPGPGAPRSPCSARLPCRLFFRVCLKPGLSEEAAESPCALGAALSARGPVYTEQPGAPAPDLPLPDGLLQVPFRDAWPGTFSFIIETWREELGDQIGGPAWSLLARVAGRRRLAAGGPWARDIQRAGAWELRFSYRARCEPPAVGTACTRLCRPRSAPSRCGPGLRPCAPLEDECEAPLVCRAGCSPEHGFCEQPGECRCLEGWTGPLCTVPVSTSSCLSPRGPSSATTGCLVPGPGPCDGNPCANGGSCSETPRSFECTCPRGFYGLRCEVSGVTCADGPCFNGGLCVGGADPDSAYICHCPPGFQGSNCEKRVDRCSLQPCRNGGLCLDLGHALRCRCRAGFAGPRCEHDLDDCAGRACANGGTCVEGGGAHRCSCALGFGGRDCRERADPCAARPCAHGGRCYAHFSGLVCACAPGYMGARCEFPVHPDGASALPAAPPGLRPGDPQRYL

Kd [1]: 264 pM
koff [1]: 0.00082 s⁻¹
kon [1]: 3.11e+06 M⁻¹ s⁻¹
B1: mab013 scFv-hFc (Fc fusion, part only; not given: linker and human IgG1 Fc, not shown: a dimerising Fc or GST)
scFv, part: DIVLTQSPASLAVSLGQRATISCRASKSVSTSGFSYMHWYQQKPGQPPKLLIYLASNLESGVPARFSGSGSGTDFTLNIHPVEEEDAATYYCQHSRELPFTFGSGTKLEIKQVQLQQSGAELVKPGASVRISCKASGYAFSNYWINWVKQRPGKGLEWIGQINPGDGDTIYNGKFKGKATLTADKSSSTAYMQLSSLTSEDSAVYFCEREGRNYGDFAYWGQGTTLTVSS

MFI [2]: 1190
MFI [3]: 1360
MFI [4]: 1120
MFI [5]: 1680
MFI [6]: 588
MFI [7]: 218
MFI [8]: 135
MFI [9]: 113
Kd [1]: 0.597 pM
koff [1]: 1.46e-06 s⁻¹
kon [1]: 2.45e+06 M⁻¹ s⁻¹
B2: mab015 scFv-hFc (Fc fusion, part only; not given: linker and human IgG1 Fc, not shown: a dimerising Fc or GST)
chain, part: NIVMTQSPKSMSMSVGERVTLSCKASENVGTYVSWFQQKPEQSPKLLIYGASNRYTGVPDRFTGSGSATDFTLTISSVQAEDLADYHCGQFYSFPCTFGGGTKLEIKEVKLEESGGGLVQPGGSMKLSCVASGITFSNFWMNWVRQSPEKGLEWVAQIRLKSDDYATHYAESVKGRFTISRDDSKGSVYLQMNNLRTEDTGIHYCTTGYYFDYWGQGTTLTVSS

Kd [1]: 13.1 pM
koff [1]: 2.5e-05 s⁻¹
kon [1]: 1.91e+06 M⁻¹ s⁻¹
B3: Hab015VL4VH6b-hFc (Fc fusion, part only; not given: VL-VH linker and human IgG1 Fc, not shown: another chain or arm of the molecule; a dimerising Fc or GST; small tags and cut ends)
VL: NIVLTQSPATLSLSPGERATLSCKASENVGTYVSWFQQKPGQSPRLLIYGASNRYTGIPARFSGSGSGTDFTLTISSLEPEDFAVYYCGQFYSFPSTFGGGTKVEIK
VH: EVQLVESGGGLVKPGGSLRLSCAASGITFSNFWMNWVRQAPEKGLEWVGQIRLKSDQYATHYAESVKGRFTISREDSKNTVYLQMNSLKTEDTAVYYCTTGYYFDYWGQGTTVTVSS

MFI [2]: 759
MFI [3]: 815
MFI [4]: 722
MFI [5]: 888
MFI [6]: 673
MFI [7]: 379
MFI [8]: 180
MFI [9]: 122
B4: Hab009VL1aVH1-hFc (Fc fusion, part only; not given: Linker and human IgG1 Fc, not shown: a dimerising Fc or GST)
chain, part: DIVMTQSPLSLPVTPGEPASISCRASQTISDYLHWYLQKPGQSPQLLIKYASQSISGVPDRFSGSGSGSDFTLKISRVEAEDVGVYYCQQGHSFPLTFGQGTKLEIKEVQLVQSGAEVKKPGASVKVSCKASGYTFTSYWMHWVRQAPGQRLEWMGTIYPGNSDTRYNQKFKDRVTITADTSASTAYMELSSLRSEDTAVYYCTRSYDYGDLDYWGQGTTVTVSS

MFI [2]: 747
MFI [3]: 789
MFI [4]: 709
MFI [5]: 870
MFI [6]: 671
MFI [7]: 377
MFI [8]: 185
MFI [9]: 124
B5: Hab009VL2aVH1-hFc (Fc fusion, part only; not given: Linker and human IgG1 Fc, not shown: a dimerising Fc or GST)
chain, part: B4 chain, part with Q45R, S69T

MFI [2]: 373
MFI [3]: 438
MFI [4]: 176
MFI [5]: 537
MFI [6]: 107
MFI [7]: 95
MFI [8]: 94
MFI [9]: 113
Kd [1]: 381 pM
koff [1]: 0.00034 s⁻¹
kon [1]: 891000 M⁻¹ s⁻¹
B6: mab008 scFv-hFc (Fc fusion, part only; not given: linker and human IgG1 Fc, not shown: a dimerising Fc or GST)
chain, part: DIVMTQSQKFMSTSVGDRVSITCKASQNVGTAVAWYQQKPGQSPKLLIFSASIRYTGVPDRFTGSGSGTDFTLTISNMQSEDLADYFCQQYSSSPYTFGGGTKLEIKEVQLQQSGPVLVKPGASVKMSCKASGYTFTDYYMNWVKRSHGKSLEWIGIINPYNGGTSYNQKFRGKATLTVDKSSNTAYMELNSLTSEDSAVYYCSRYDYDYDVEGAMDYWGQGTSVTVSS

MFI [2]: 702
MFI [3]: 829
MFI [4]: 667
MFI [5]: 1190
MFI [6]: 429
MFI [7]: 213
MFI [8]: 134
MFI [9]: 112
Kd [1]: 54.7 pM
koff [1]: 4.64e-05 s⁻¹
kon [1]: 848000 M⁻¹ s⁻¹
B7: mab014 scFv-hFc (Fc fusion, part only; not given: Linker and human IgG1 Fc, not shown: a dimerising Fc or GST)
chain, part: DIQMTQSSSSFSVSLGDRVTITCKASEDIYNRLAWYQQKPGNTPRLLISGATSLETGVPSRFSGSGSGKDFTLSITSLQTEDVATYYCQQYWSLPWTFGGGTKLEIKEVQLHQSGPELVKPGTSVKISCKASGYTFTDYYMNWVKQSHGKSLEWIGDINPNHGDTGYNQKFTGKATLTVDKSSSTAYMELRSLTSEDSAVYYCARNFFYYGTTYGWYFDVWGTGTTVTVSS

MFI [2]: 737
MFI [3]: 833
MFI [4]: 674
MFI [5]: 968
MFI [6]: 673
MFI [7]: 346
MFI [8]: 175
MFI [9]: 123
Kd [1]: 216 pM
koff [1]: 0.00132 s⁻¹
kon [1]: 6.13e+06 M⁻¹ s⁻¹
B8: mab009 scFv-hFc (Fc fusion, part only; not given: Linker and human IgG1 Fc, not shown: a dimerising Fc or GST)
chain, part: DIVMTQSPATLSVTPGDRVSLSCRASQTISDYLHWYQQRSHESPRLLIKYASQSISGIPSRFSGSGSGSDFTLSINSVEPEDVGVYYCQNGHSFPLTFGAGTKLELKEVQLQQSGTVLARPGASVKMSCKTSGYTFTSYWMHWVKQSPGQGLEWIGTIYPGNSDTRYNQKFKDKAYVTAVTSASTAYMELSSLTNEESAVYYCTRSYDYGDLDYWGQGTTLTVSS

MFI [2]: 445
MFI [3]: 494
MFI [4]: 429
MFI [5]: 588
MFI [6]: 385
MFI [7]: 250
MFI [8]: 151
MFI [9]: 117
B9: Hab006VL4VH2-hFc (Fc fusion, part only; not given: Linker and human IgG1 Fc, not shown: a dimerising Fc or GST)
chain, part: DIVMTQSPDSLAVSLGERATINCRATKSISKYLAWYQQKPGQTNKLLIFSGSTLQSGVPDRFSGSGSGTDFTLTISSLQAEDVAVYYCQQHHEYPYTFGGGTKVEIKEVQLVQSGAEVKKPGASVKVSCKASGYTFTSYWMHWVRQAPGQRLEWMGVIDPSDSLANYNQEFKGRVTLTVDTSASTAYMELSSLRSEDTAVYYCARDSTVVAPMDYWGQGTTVTVSS

MFI [2]: 457
MFI [3]: 488
MFI [4]: 422
MFI [5]: 586
MFI [6]: 416
MFI [7]: 292
MFI [8]: 177
MFI [9]: 123
Kd [1]: 1250 pM
koff [1]: 0.000203 s⁻¹
kon [1]: 162000 M⁻¹ s⁻¹
B10: mab006 scFv-hFc (Fc fusion, part only; not given: linker and human IgG1 Fc, not shown: a dimerising Fc or GST)
chain, part: DVQITQSPSYLAASPGETITINCRATKSISKYLAWYQEKPGKTNKLLIFSGSTLQSGIPSRFRGSGSGTDFTLTISSLEPEDFAMYYCQQHHEYPYTFGGGTKLEIKQVQLQQPGAELVRPGTSVKLSCKASGYTFTSYWMHWVRQRPGQGLEWIGVIDPSDSLANYNQEFKGKATLTVDTSSSTAYMQLSSLTSEDSAVYYCARDSTVVAPMDYWGQGTSVTVSS
